Patent publication US20220315554A1, “COMPOUNDS COMPRISING A […] LIGAND AND USE THEREOF” (priority 2019, published 2022)

What was measured:
[1] = target: recombinant human PREP (R&D systems, #4308-SE) (human)
[2] = target: Recombinant human DPP4 (R&D systems, #9168-SE) (human)
[3] = target: human fibroblast activation protein (FAP) on FAP-expressing human WI-38 fibroblasts (human); experiment: competition FACS, WI-38 cells, vs Cy5-labeled compound; D: pIC50 ≤6.0
[4] = target: T1, Recombinant human FAP (R&D systems, #3715-SE) (human)
T1 sequence: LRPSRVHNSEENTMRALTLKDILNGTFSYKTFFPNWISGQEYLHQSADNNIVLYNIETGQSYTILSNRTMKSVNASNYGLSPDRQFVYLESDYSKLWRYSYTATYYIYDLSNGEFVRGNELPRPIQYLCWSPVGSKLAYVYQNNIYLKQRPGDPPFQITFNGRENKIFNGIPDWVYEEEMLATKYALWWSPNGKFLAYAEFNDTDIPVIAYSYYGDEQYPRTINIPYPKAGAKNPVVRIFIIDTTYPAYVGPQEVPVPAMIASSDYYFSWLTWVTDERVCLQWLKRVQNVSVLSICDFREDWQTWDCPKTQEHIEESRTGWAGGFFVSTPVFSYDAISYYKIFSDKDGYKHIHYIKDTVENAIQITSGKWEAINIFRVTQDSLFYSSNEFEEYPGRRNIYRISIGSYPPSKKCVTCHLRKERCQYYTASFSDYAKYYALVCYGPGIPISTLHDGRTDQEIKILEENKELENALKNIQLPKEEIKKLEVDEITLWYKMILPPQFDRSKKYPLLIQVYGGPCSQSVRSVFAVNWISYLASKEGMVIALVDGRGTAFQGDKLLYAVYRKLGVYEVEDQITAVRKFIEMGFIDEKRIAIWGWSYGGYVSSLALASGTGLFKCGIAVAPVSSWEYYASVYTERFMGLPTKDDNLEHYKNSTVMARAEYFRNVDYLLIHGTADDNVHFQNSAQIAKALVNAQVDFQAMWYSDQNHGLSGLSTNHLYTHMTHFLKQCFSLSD

[5] = target: human fibroblast activation protein (FAP) on FAP-expressing human WI-38 fibroblasts (human); experiment: competition FACS, WI-38 cells, vs Cy5-labeled compound; A: pIC50 >8.0

Substance | pIC50 (PREP) [1] | pIC50 (DPP4) [2] | pIC50 Category (FACS) [3] | pIC50 Category (Activity) [4] | other results
DOTA-Ttds-Nle-[Cys(3MeBn)-Pro-Pro-Thr-Glu-Phe-Cys]-Asp-Pamb-Arg-NH2 (3BP-3321) (peptide) | < 6 pIC50 | < 6 pIC50 |  |  | 
Hex-[Cys(3MeBn)-Pro-Pro-Thr-Glu-Tic-Cys]-NH2 (peptide) |  |  | < 6 pIC50 |  | 
Hex-[Cys(3MeBn)-Pro-Pro-Thr-Glu-Nphe-Cys]-NH2 (peptide) |  |  | < 6 pIC50 | < 6 pIC50 | 
Hex-[Cys(3MeBn)-Pro-Pro-Thr-Glu-Bip-Cys]-NH2 (peptide) |  |  | < 6 pIC50 | < 6 pIC50 | 
Hex-[Cys(3MeBn)-Pro-4Dfp-Thr-Glu-Phe-Cys]-NH2 (peptide) |  |  | < 6 pIC50 |  | 
Hex-[Cys(3MeBn)-Pro-Pro-Thr-Gln-Phe-Cys]-Bhk(DOTA)-OH (3BP-3397) (peptide) | < 6 pIC50 | < 6 pIC50 |  |  | 
Hex-[Cys(3MeBn)-Pro-Eay-Thr-Glu-Phe-Cys]-NH2 (peptide) |  |  | < 6 pIC50 |  | 
DOTA-Ttds-Nle-[Cys(3MeBn)-Pro-Pro-Thr-Glu-Phe-Cys]-NH2 (3BP-3319) (peptide) | 6.2 pIC50 | < 6 pIC50 |  |  | 
Hex-[Cys(3MeBn)-Pro-Pro-Orn(Ac)-Glu-Phe-Cys]-NH2 (peptide) |  |  | < 6 pIC50 |  | 
DOTA-Ttds-Nle-[Cys(3MeBn)-Pro-Pro-Thr-Gln-Phe-Cys]-Bal-OH (3BP-3398) (peptide) | < 6 pIC50 | < 6 pIC50 |  |  | 
Hex-[Cys(3MeBn)-Pro-Tap-Thr-Glu-Phe-Cys]-NH2 (peptide) |  |  | < 6 pIC50 |  | 
Hex-[Cys(3MeBn)-Pro-Pro-Thr-Moo-Phe-Cys]-NH2 (peptide) |  |  | < 6 pIC50 | < 6 pIC50 | 
DOTA-Ttds-Nle-[Cys(3MeBn)-Pro-Pro-Thr-Glu-Phe-Cys]-Asp-His-Phe-Arg-Asp-NH2 (3BP-3168) (peptide) | < 6 pIC50 | < 6 pIC50 |  |  | 
Hex-[Cys(3MeBn)-Pro-Pro-Thr-Glu-Phe-Cys]-Asp-Ttds-Lys(DOTA)-NH2 (peptide) |  |  |  | > 8 pIC50 | pIC50 Category (FACS) [5]: > 8 pIC50
DOTA-Ttds-Hci-[Cys(3MeBn)-Pro-Pro-Thr-Gln-Phe-Cys]-Bal-OH (peptide) |  |  | < 6 pIC50 | < 6 pIC50 | 
DOTA-Ttds-Nle-[Cys(3MeBn)-Pro-Pro-Thr-Glu-Phe-Cys]-Asp-His-Phe-Arg-Asp-NH2 (peptide) |  |  |  | > 8 pIC50 | pIC50 Category (FACS) [5]: > 8 pIC50

Second part, led by results:

pIC50 (PREP) [1] | pIC50 (DPP4) [2] | pIC50 Category (FACS) [3] | pIC50 Category (Activity) [4] | Substance | other results
 |  | < 6 pIC50 |  | Hex-[Cys(3MeBn)-Pro-Pro-Thr-Glu-Phe-Pen]-NH2 (peptide) | 
 |  | < 6 pIC50 | < 6 pIC50 | Hex-[Cys(3MeBn)-Pro-Pro-Thr-Nme-Phe-Cys]-NH2 (peptide) | 
< 6 pIC50 | < 6 pIC50 |  |  | H-Met-[Cys(3MeBn)-Pro-Pro-Thr-Glu-Phe-Cys]-Asp-His-Phe-Arg-Asp-Ttds-Lys(Bio)-NH2 (3BP-2881) (peptide) | 
 |  | < 6 pIC50 |  | DOTA-Ttds-Hgl-[Cys(3MeBn)-Pro-Pro-Thr-Gln-Phe-Cys]-Bal-OH (peptide) | 
 |  | < 6 pIC50 |  | Hex-[Cys(3MeBn)-Pro-Pro-Thr-Glu-Nmf-Cys]-NH2 (peptide) | 
< 6 pIC50 | < 6 pIC50 |  |  | DOTA-Ttds-Nle-[Cys(3MeBn)-Pro-Pro-Thr-Glu-Phe-Cys]-Asp-NH2 (3BP-3320) (peptide) | 
 |  | < 6 pIC50 |  | Hex-[Cys(3MeBn)-Pro-Pro-Opc-Glu-Phe-Cys]-NH2 (peptide) | 
< 6 pIC50 | < 6 pIC50 |  |  | Hex-[Cys(3MeBn)-Pro-Pro-Thr-Glu-Phe-Cys]-Asp-His-Phe-Arg-Asp-Ttds-Lys(DOTA)-NH2 (3BP-3105) (peptide) | 
< 6 pIC50 | < 6 pIC50 |  |  | [3MeBn-Spa-Pro-Pro-Thr-Gln-Phe-Cys]-Asp-NH2 (3BP-3419) (peptide) | 
 |  |  | > 8 pIC50 | Hex-[Cys(tMeBn(DOTA-AET))-Pro-Pro-Thr-Gln-Phe-Cys]-Gab-OH (peptide) | pIC50 Category (FACS) [5]: > 8 pIC50
